Molecular target: T1, LGR4 (Xenopus tropicalis, UniProt B0BLW3)
T1 construct: expressed in transfected cells; host or cells: HEK293T
T1 sequence (B0BLW3 22-955): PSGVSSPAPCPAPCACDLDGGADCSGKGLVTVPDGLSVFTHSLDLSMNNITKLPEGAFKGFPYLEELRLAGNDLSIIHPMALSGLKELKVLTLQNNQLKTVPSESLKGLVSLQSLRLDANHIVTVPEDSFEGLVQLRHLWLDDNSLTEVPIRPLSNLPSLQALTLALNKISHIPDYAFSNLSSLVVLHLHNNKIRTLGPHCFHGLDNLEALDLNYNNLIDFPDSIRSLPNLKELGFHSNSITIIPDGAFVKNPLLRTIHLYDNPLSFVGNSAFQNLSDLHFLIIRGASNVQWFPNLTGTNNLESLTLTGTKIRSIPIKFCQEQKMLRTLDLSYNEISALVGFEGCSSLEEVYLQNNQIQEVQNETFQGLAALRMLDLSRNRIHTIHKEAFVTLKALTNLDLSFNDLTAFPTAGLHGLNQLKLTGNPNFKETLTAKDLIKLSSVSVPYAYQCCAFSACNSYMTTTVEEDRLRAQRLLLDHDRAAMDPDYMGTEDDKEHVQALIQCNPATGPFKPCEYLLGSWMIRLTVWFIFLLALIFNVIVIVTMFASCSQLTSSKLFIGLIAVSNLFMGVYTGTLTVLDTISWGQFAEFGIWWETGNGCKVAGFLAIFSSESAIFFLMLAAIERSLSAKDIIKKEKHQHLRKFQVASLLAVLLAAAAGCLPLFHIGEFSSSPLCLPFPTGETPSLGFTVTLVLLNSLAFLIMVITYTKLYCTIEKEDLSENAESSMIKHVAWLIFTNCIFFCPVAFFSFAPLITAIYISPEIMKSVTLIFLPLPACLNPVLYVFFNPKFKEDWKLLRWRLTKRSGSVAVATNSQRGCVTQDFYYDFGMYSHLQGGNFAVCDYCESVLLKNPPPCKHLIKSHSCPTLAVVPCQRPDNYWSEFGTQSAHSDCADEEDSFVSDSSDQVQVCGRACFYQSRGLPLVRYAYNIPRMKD
Assay: Cell surface binding assay in HEK293T cells transfected with LGR4
Method: Cell surface binding assays were carried essentially out as previously described (Dosch et al. (1997), Development 124, 2325-2334). In brief, human ALK3-HA and Xenopus tropicalis LGR4 DNA were transfected in HEK293T cells, and incubated with 1.5 U ml^−1 conditioned media for 3 hours on ice. After several washes and crosslinking, cells were treated with 2 mM Levamisole for 20 min to inactivate endogenous AP activities and developed with BM-Purple (Sigma 11442074001). Cells were mounted with Fluoromount G. Images were obtained using LEICA DMIL microscope/Canon DS126311 camera.

B1: RSPO2: human R-spondin 2 protein (SEQ ID NO:1); conditioned medium or recombinant (Peprotech 120-43) (protein, listed as Homo sapiens)
chain: MQFRLFSFALIILNCMDYSHCQGNRWRRSKRASYVSNPICKGCLSCSKDNGCSRCQQKLFFFLRREGMRQYGECLHSCPSGYYGHRAPDMNRCARCRIENCDSCFSKDFCTKCKVGFYLHRGRCFDECPDGFAPLEETMECVEGCEVGHWSEWGTCSRNNRTCGFKWGLETRTRQIVKKPVKDTILCPTIAESRRCKMTMRHCPGGKRTPKAKEKRNKKKKRKLIERAQEQHSVFLATDRANQ
- LGR binding: required the FU domains but not TSP1

— patent US20250346890A1, “LEUKEMIA TREATMENT” (Deutsches Krebsforschungszentrum, priority 2019, published 2025)
